# Measurements published in patent publication US20170304442A1 (SORRENTO THERAPEUTICS, published 2017).
# Positions count from the first letter of the chain named.
# T1: recombinant human WISP1/His (human, UniProt O95388 23-367)
# T1 construct: also called hWISP1; recombinant human WISP1 protein; not shown: His tag
# T1 sequence (looked up): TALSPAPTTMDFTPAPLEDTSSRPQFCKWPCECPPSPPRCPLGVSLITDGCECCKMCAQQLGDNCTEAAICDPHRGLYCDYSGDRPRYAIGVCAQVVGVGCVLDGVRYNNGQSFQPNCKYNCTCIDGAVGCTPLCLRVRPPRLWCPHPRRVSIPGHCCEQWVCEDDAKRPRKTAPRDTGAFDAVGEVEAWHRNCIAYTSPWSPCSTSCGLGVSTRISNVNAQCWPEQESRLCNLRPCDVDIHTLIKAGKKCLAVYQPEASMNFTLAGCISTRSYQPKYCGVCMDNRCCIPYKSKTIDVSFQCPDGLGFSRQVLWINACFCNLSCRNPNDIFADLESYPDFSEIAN
# T2: recombinant mouse WISP1/His (mouse, UniProt O54775 23-367)
# T2 construct: also called murine WISP1; mWISP1; not shown: His tag
# T2 sequence (looked up): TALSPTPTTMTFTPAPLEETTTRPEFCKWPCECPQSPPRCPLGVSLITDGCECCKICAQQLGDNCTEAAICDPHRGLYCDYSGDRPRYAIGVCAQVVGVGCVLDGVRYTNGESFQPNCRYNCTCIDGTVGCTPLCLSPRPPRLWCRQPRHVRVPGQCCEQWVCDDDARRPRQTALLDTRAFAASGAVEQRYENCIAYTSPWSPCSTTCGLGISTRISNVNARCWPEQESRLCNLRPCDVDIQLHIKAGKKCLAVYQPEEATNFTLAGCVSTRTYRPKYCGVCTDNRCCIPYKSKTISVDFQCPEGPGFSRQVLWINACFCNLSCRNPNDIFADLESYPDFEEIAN
# B1: WIr1B11 (antibody, V domains shown)
# VH: EVQLVQSGAEVKKPGASVKVSCKASGYTFTSYDINWVRQATGQGPEWLGWLNPGSGKTGNAQNFQGRVFMTWDTSKDTAYMEMSSLRSDDTAVYYCARNLDYWGQGTLVTVSS
# VL: DIVMTQTPSSLSASVGDRVTITCRASQSISSYLNWYQQKPGKAPKLLIYAASSLQSGVPSRFSGSRSGTDFTLTITNVQPEDFATYYCLQAYDFPITFGQGTKVEIK
# notes: Fully human IgG; also called Wlr1B11
# B2: WIr2B11 (antibody, V domains shown)
# VH: B1 VH
# VL: AIQLTQSPSTLSASVGDRVTITCRASQSISSWLAWYQQKPGKAPKLLIYATSRLQSGVPSRFSGSGSGTDFTLTINSLQPEDFATYYCQQYKSYPVTFGPGTKVDIK
# notes: Fully human IgG; also called Wlr2B11
# B3: WI2D9 (antibody, V domains shown)
# VH: EVQLVQSGAEVKRSGASVKVSCKLSGDTLTDLSIHWVRQAPGKGLEWMGGFDFEDGEIVYGDKFKGRVTVTEDPSTDTAYMDLKRLTFEDTAIYYCATIKDIPGRYYFDFWGQGTLVTVSS
# VL: QSVVTQPPSVSGAPGQRVTISCTGSSSNIGAGYDVHWYQQLPGTAPKLLIYGNSNRPSGVPDRFSGSKSGTSASLAITGLQAEDEADYYCQSYDSSLSGSNWVFGGGTKLTVL
# notes: Fully human IgG; also called Wl2D9
# B4: WIr2A6 (antibody, V domains shown)
# VH: EVQLVQSGGGLVKPGGSLRLSCEASGFTVSSYYMNWIRQAPGKGLEWISSFTAEGSTYYADSVRGRFSISRDNAKNSLYLEMTRLRADDTAVYYCARDLDRRDWYGGYFDSWGQGTLVTVSS
# VL: LPVLTQPPSVSGAPGQRLTISCTGSSSNIGAGYGVHWYQHLPGSAPKLLIYGNSNRPSGVTDRISGSKSGTSASLAITGLQTGDEADYYCAAWDSYLSGYVFGTGTKVTVL
# notes: Fully human IgG; also called Wlr2A6
# B5: WIr2A2 (antibody, V domains shown)
# VH: EVQLVQSGAEVKKPGASVKVSCKVSGYTLTELSMHWVRQAPGKGLEWMGGFDPEDGETIYAQKFQGRVTMTEDTSTDTAYMELSSLRSEDTAVYYCATFMFDHDWFQLDPWGQGTLVTVSS
# VL: QSALTQPPSASGTPGQRVTIACSGSSSNIGTNTVNWYQQLPGTAPKLLIYNNNQRPSGVPDRFSGSKSGTSASLAITGLQAEDEADYYCQSYDRSLSGYVFGSGTKLTVL
# notes: Fully human IgG; also called Wlr2A2
# B6: WIr2A9 (antibody, V domains shown)
# VH: QVQLVESGAEVKKPGASVKVSCKVSGYTLTELSMHWVRQAPGKGLEWMGGFDPEDGETIYAQKFQGRVTMTEDTSTDTAYMELSSLRSEDTAVYYCATGGSYYYGSGSYGSRPGYFDLWGRGTLVTVSS
# VL: QSVLTQPASVSGSPGQSITISCTGTSSDVGSYNLVSWYQQHPGKAPKLMIYEGSKRPSGVPDRFSGSKSGNTASLSISGLQAEDEADYYCSSYTSSSTLVFGGGTKLTVL
# notes: Fully human IgG; also called Wlr2A9
# B7: WI1E6 (antibody, V domains shown)
# VH: EVQLLESGGGVVQPGRSLRLSCAASGFTFSSYGMHWVRQAPGKGLEWVAVIWYDGSNKYYADSVKGRFTISRDNSKNTLYLQMNSLRAEDTAVYYCARGSAFNIWGQGTMVTVSS
# VL: QAVVTQPASVSGSPGQSITISCIGTSSDVGGYNYVSWYQQHPGKAPKLMIYDVSNRPSGVSNRFSGSKSGNTASLTISGLQAEDEADYYCSSYTTSNTFVFGTGTKVTVL
# notes: Fully human IgG; also called Wl1E6
# B8: WI1A6 (antibody, V domains shown)
# VH: B7 VH
# VL: LPVLTQPASVSGSPGQSITITCTGTSSDVGAYNYVSWYQQRPGKAPKLMIYDVSKRPSGVSNRFSGSKSGNTASLTISGLQAEDEADYYCSSYTSSSTYVVFGGGTKLTVL
# notes: Fully human IgG; also called Wl1A6
# B9: WIr1E2 (antibody, V domains shown)
# VH: QMQLVQSGAEVKEPGSSVKVSCKASGDNSYPLNWVRQAPGQGLEWMGGIIPIFGTPNYAQKFEGRVTITADESTNTAYMEISSLRFEDTAMYYCAREGDGYNYSPLDYWGQGTLVTVSS
# VL: QAVLTQPPSVSKGLRQTATLTCTGDSSNVGNQGAAWLQQHPGLPPKVLSYRNNSRPSGISERLFVSRSGNSASLTITGLQPEDEADYYCSAWDSSLGAWVFGGGTQLTVL
# notes: Fully human IgG; also called Wlr1E2
# B10: WIr1G5 (antibody, V domains shown)
# VH: QVQLVESGGGLIQPGGSLRLSCAASGFTVSSNYMSWVRQAPGKGLEWVSVIYSGGSTYYADSVKGRFTISRDNSKNTLYLQMNSLRAEDTAVYYCARFSGWNAFDIWGQGTMVTVSS
# VL: DIVMTQTPSTLSASVGDRVTITCRASQSISSWLAWYQQKPGKAPKLLIYKASSLESGVPSRFSGSGSGTDFTLTISSLRPEDFATYYCQHSSTFGQGTRLEIK
# notes: Fully human IgG; also called Wlr1G5
# B11: WI1A5 (antibody, V domains shown)
# VH: QVQLVQSGREMKKPGASMKVSCKASGYTFTKYGISWVRQAPGQGLEWMGWISADNGKTHYAQKLQGRVTMTTDTSTSTAYLELRRLRSDDTAVYFCANDGGYWGQGTLVTVSS
# VL: QSVLTQPPSVSGAPGQRVTISCTGTSSNLGAGFPVYWYQQLPGKPPKVLIDGNNDRPSGVPDRVSGSKSDTSASLAITGLQAEDEADYYCLSYDSGLDGWVFGGGTKLTVL
# notes: Fully human IgG; also called Wl1A5
# B12: WIr2A7 (antibody, V domains shown)
# VH: QVQLVQSGAEVKKPGASVKVSCKVSGYTLTELSIYWVRQAPGKGLEWVGGFDPEDGETVYAQNFQGRVTMTEDTSTDTAYMELSSLRSEDTAVYYCATHTSYDKVWGRYRPSLAFDIWGQGTMVTVSS
# VL: DIVMTQTPSSLSASVGDRVTITCQASQDISKYLNWYQQKPGKAPNLLIYDASNLETGVPSRFSGSGSGTDFTLTISSLQPEDIGTYYCQQDDNLPLTFGGGTKVEIK
# notes: Fully human IgG; also called Wlr2A7
# B13: WIr2B5 (antibody, V domains shown)
# VH: EVQLVESGAEVKKPGASVKVSCKASGYTFTSYGISWVRQAPGQGLEWMGWISAYNGNTNYAQKLQGRVTMTTDTSTSTAYMELRSLRSDDTAVYYCARDWDSTSWENYYYGMDVWGQGTTVTVSS
# VL: B12 VL with K31N, N45K, L73F, G84A, D91H, V104L
# notes: Fully human IgG; also called Wlr2B5
# B14: WIr1B6 (antibody, V domains shown)
# VH: QVQLVESGGGLVQPGGSLRLSCAASGFTFDDYAMHWVRQAPGKGLEWVSGISWNSGSIGYADSVKGRFTISRDNAKNSLYLQMNSLRAEDTALYYCAKVRAAAGTGGDYFDYWGQGTLVTVSS
# VL: LPVLTQPRSVSGSPGQSVTISCTGSSSDVGRSNFVSWYQQYPGKAPKLMIFDVNKRPSGVPDRFSGSKSGNTASLTISGLQADDEAEYYCSSYAGTWIFGGGTQLTVL
# notes: Fully human IgG; also called Wlr1B6
# B15: WIr2B8 (antibody, V domains shown)
# VH: EVQLVQSGAEVKKPGSSVKVSCKASGGTFSSYAISWVRQAPGQGLEWMGGIIPIFGTANYAQKFQGRVTITADESTSTAYMELSSLRSEDTAVYYCARGQPFRDSSGYYWSYFDYWGQGTLVTVSS
# VL: SYELTQPPSVSKDLRQTATLTCTGNSNNVGNQGAAWLQQHQGHPPKLLSDRNNNRPSGISERLSASRSENIASLTITGLQPEDEADYFCAAWDTSLNTFLFGGGTKLTVL
# notes: Fully human IgG; also called Wlr2B8
# B16: WIrF8 (antibody, V domains shown)
# VH: EVQLLESGAEVKKPGASVKVSCRVPGYSLSELSMHWVRQAPGKGLEWMGGFDPEDGETIYAQKFQGRVTMTEDTSTDTAYMELSSLRSEDTAVYYCAASGGWEVHDAFDTWGQGTMVTVSS
# VL: DIVMTQSPSSLSASVGDRVTITCRASQDISYYLAWYQQKPGKAPELLIYAGSSLQSGVPSRFSGSESGTDFTLTISSLQPEDVASYYCQQYKTAPYTFGQGTKLEIK
# notes: Fully human IgG; also called WlrF8
# B17: WIr1G10 (antibody, V domains shown)
# VH: QVQLQQSGPGLVKPSQTLSLTCAISGDTVSSNSAAWNWIRQSPSRGLEWLGGTYYRSKWYNDYAVSVKSRITINPDTSKNQFSLQLNSVTPEDTAVYYCTRSAPAAFDYWGQGTLVTVSS
# VL: QSVVTQPPSVSAAPGQKVTISCSGSTSNIGNNYVSWYQQLPGTAPKLLIYDNNKRPSGIPDRFSGSKSGTSATLGITGLQTGDEADYYCGTSDTSLSIYVFGTGTKVTVL
# notes: Fully human IgG; also called Wlr1G10
# B18: WIr2B12 (antibody, V domains shown)
# VH: EVQLVQSGAEVKKPGASVKVSCKASGYTFTSYYMHWVRQAPGQGLEWMGIINPSGGSTSYAQKFQGRVTMTRDTSTSTAYMELSSLRSEDTAVYYCARDIDDYGDGVWGQGTMVTVSS
# VL: B17 VL with V4L, T26S, G30A, K54E, S92W, T94G, I98A, Y99G, T103G, V107L
# notes: Fully human IgG; also called Wlr2B12
# Biological target: T1, recombinant human WISP1/His
# Assay: ELISA screening
row,binding result,Binder
1,binds,B1
2,binds,B2
3,binds,B3
4,binds,B4
5,binds,B5
6,binds,B6
7,binds,B7
8,binds,B8
9,binds,B9
10,binds,B10
11,binds,B11
12,binds,B12
13,binds,B13
14,binds,B14
15,binds,B15
16,binds,B16
17,binds,B17
18,binds,B18

# Biological target: T2, recombinant mouse WISP1/His
# Assay: ELISA screening
row,binding result,Binder
1,binds,B1
2,binds,B2
3,binds,B3
4,binds,B4
5,binds,B5
6,binds,B6
7,binds,B7
8,binds,B8
9,binds,B9
10,binds,B10
11,binds,B11
12,binds,B12
13,binds,B13
14,binds,B14
15,binds,B15
16,binds,B16
17,binds,B17
18,binds,B18
